Patent publication US20210388087A1 (Chugai, published 2021)
Numbering of substitutions follows the chain as printed.

B1: GLS3000 N28D (antibody, name in Kabat numbering, V domains shown)
VH: QVQLVESGGGVVQPGRSLRLSCAASGFTFSNAWMHWVRQAPGKGLEWVAQIKAKSNNYATYYAESVKGRFTISRDDSKNSLYLQMNSLKTEDTAVYYCRYVHYGAYYGVDAWGQGTTVTVSS
VL: DIVMTQSPLSLPVTPGEPASISCRSSQSLVHSDRNTYLHWYQQKPGQAPRLLIYKVSNRFSGVPDRFSGSGSGTDFTLKISRVEAEDVGVYYCGQGTQVPYTFGQGTKLEIK
notes: one-arm IgG as m2
B2: GLS3000 N53Q (antibody, name in Kabat numbering, V domains shown)
VH: B1 VH
VL: B1 VL with D33N, N58Q
notes: one-arm IgG as m2
B3: GLS3000 N30M (antibody, name in Kabat numbering, V domains shown)
VH: B1 VH
VL: B1 VL with D33N, N35M
notes: one-arm IgG as m2
B4: GLS3000 N30V (antibody, name in Kabat numbering, V domains shown)
VH: B1 VH
VL: B1 VL with D33N, N35V
notes: one-arm IgG as m2
B5: GLS3000 N28P (antibody, name in Kabat numbering, V domains shown)
VH: B1 VH
VL: B1 VL with D33P
notes: one-arm IgG as m2
B6: GLS3000 N30Q (antibody, name in Kabat numbering, V domains shown)
VH: B1 VH
VL: B1 VL with D33N, N35Q
notes: one-arm IgG as m2
B7: GLS3000 N30G (antibody, name in Kabat numbering, V domains shown)
VH: B1 VH
VL: B1 VL with D33N, N35G
notes: one-arm IgG as m2
B8: GLS3000 N53L (antibody, name in Kabat numbering, V domains shown)
VH: B1 VH
VL: B1 VL with D33N, N58L
notes: one-arm IgG as m2
B9: GLS3000 N53D (antibody, name in Kabat numbering, V domains shown)
VH: B1 VH
VL: B1 VL with D33N, N58D
notes: one-arm IgG as m2
B10: GLS3000 N30T (antibody, name in Kabat numbering, V domains shown)
VH: B1 VH
VL: B1 VL with D33N, N35T
notes: one-arm IgG as m2
B11: GLS3000 N53F (antibody, name in Kabat numbering, V domains shown)
VH: B1 VH
VL: B1 VL with D33N, N58F
notes: one-arm IgG as m2
B12: GLS3000 N30R (antibody, name in Kabat numbering, V domains shown)
VH: B1 VH
VL: B1 VL with D33N, N35R
notes: one-arm IgG as m2
B13: GLS3000 N53I (antibody, name in Kabat numbering, V domains shown)
VH: B1 VH
VL: B1 VL with D33N, N58I
notes: one-arm IgG as m2
B14: GLS3000 N28V (antibody, name in Kabat numbering, V domains shown)
VH: B1 VH
VL: B1 VL with D33V
notes: one-arm IgG as m2
B15: GLS3000 N30A (antibody, name in Kabat numbering, V domains shown)
VH: B1 VH
VL: B1 VL with D33N, N35A
notes: one-arm IgG as m2
B16: GLS3000 N30F (antibody, name in Kabat numbering, V domains shown)
VH: B1 VH
VL: B1 VL with D33N, N35F
notes: one-arm IgG as m2
B17: GLS3000 N30L (antibody, name in Kabat numbering, V domains shown)
VH: B1 VH
VL: B1 VL with D33N, N35L
notes: one-arm IgG as m2
B18: GLS3000 N28Q (antibody, name in Kabat numbering, V domains shown)
VH: B1 VH
VL: B1 VL with D33Q
notes: one-arm IgG as m2
B19: GLS3000 N53K (antibody, name in Kabat numbering, V domains shown)
VH: B1 VH
VL: B1 VL with D33N, N58K
notes: one-arm IgG as m2
B20: GLS3000 N28K (antibody, name in Kabat numbering, V domains shown)
VH: B1 VH
VL: B1 VL with D33K
notes: one-arm IgG as m2
B21: GLS3000 N28H (antibody, name in Kabat numbering, V domains shown)
VH: B1 VH
VL: B1 VL with D33H
notes: one-arm IgG as m2
B22: GLS3000 N28W (antibody, name in Kabat numbering, V domains shown)
VH: B1 VH
VL: B1 VL with D33W
notes: one-arm IgG as m2
B23: GLS3000 N28L (antibody, name in Kabat numbering, V domains shown)
VH: B1 VH
VL: B1 VL with D33L
notes: one-arm IgG as m2
B24: GLS3000 N53E (antibody, name in Kabat numbering, V domains shown)
VH: B1 VH
VL: B1 VL with D33N, N58E
notes: one-arm IgG as m2
B25: GLS3000 N30E (antibody, name in Kabat numbering, V domains shown)
VH: B1 VH
VL: B1 VL with D33N, N35E
notes: one-arm IgG as m2
B26: GLS3000 N28G (antibody, name in Kabat numbering, V domains shown)
VH: B1 VH
VL: B1 VL with D33G
notes: one-arm IgG as m2
B27: GLS3000 N30K (antibody, name in Kabat numbering, V domains shown)
VH: B1 VH
VL: B1 VL with D33N, N35K
notes: one-arm IgG as m2
B28: GLS3000 N53P (antibody, name in Kabat numbering, V domains shown)
VH: B1 VH
VL: B1 VL with D33N, N58P
notes: one-arm IgG as m2
B29: GLS3000 N28E (antibody, name in Kabat numbering, V domains shown)
VH: B1 VH
VL: B1 VL with D33E
notes: one-arm IgG as m2
B30: GLS3000 N30I (antibody, name in Kabat numbering, V domains shown)
VH: B1 VH
VL: B1 VL with D33N, N35I
notes: one-arm IgG as m2
B31: GLS3000 N28S (antibody, name in Kabat numbering, V domains shown)
VH: B1 VH
VL: B1 VL with D33S
notes: one-arm IgG as m2
B32: GLS3000 N28Y (antibody, name in Kabat numbering, V domains shown)
VH: B1 VH
VL: B1 VL with D33Y
notes: one-arm IgG as m2
B33: GLS3000 N53G (antibody, name in Kabat numbering, V domains shown)
VH: B1 VH
VL: B1 VL with D33N, N58G
notes: one-arm IgG as m2
B34: GLS3000 N30Y (antibody, name in Kabat numbering, V domains shown)
VH: B1 VH
VL: B1 VL with D33N, N35Y
notes: one-arm IgG as m2
B35: GLS3000 N30S (antibody, name in Kabat numbering, V domains shown)
VH: B1 VH
VL: B1 VL with D33N, N35S
notes: one-arm IgG as m2
B36: GLS3000 N30W (antibody, name in Kabat numbering, V domains shown)
VH: B1 VH
VL: B1 VL with D33N, N35W
notes: one-arm IgG as m2
B37: GLS3000 N53A (antibody, name in Kabat numbering, V domains shown)
VH: B1 VH
VL: B1 VL with D33N, N58A
notes: one-arm IgG as m2
B38: GLS3000 N53M (antibody, name in Kabat numbering, V domains shown)
VH: B1 VH
VL: B1 VL with D33N, N58M
notes: one-arm IgG as m2
B39: GLS3000 N53H (antibody, name in Kabat numbering, V domains shown)
VH: B1 VH
VL: B1 VL with D33N, N58H
notes: one-arm IgG as m2
B40: GLS3000 N28I (antibody, name in Kabat numbering, V domains shown)
VH: B1 VH
VL: B1 VL with D33I
notes: one-arm IgG as m2
B41: GLS3000 N28F (antibody, name in Kabat numbering, V domains shown)
VH: B1 VH
VL: B1 VL with D33F
notes: one-arm IgG as m2
B42: GLS3000 N30H (antibody, name in Kabat numbering, V domains shown)
VH: B1 VH
VL: B1 VL with D33N, N35H
notes: one-arm IgG as m2
B43: GLS3000 N30D (antibody, name in Kabat numbering, V domains shown)
VH: B1 VH
VL: B1 VL with D33N, N35D
notes: one-arm IgG as m2
B44: GLS3000 N30P (antibody, name in Kabat numbering, V domains shown)
VH: B1 VH
VL: B1 VL with D33N, N35P
notes: one-arm IgG as m2
B45: GLS3000 N28M (antibody, name in Kabat numbering, V domains shown)
VH: B1 VH
VL: B1 VL with D33M
notes: one-arm IgG as m2
B46: GLS3000 N28T (antibody, name in Kabat numbering, V domains shown)
VH: B1 VH
VL: B1 VL with D33T
notes: one-arm IgG as m2

The binders below were run against T1, CD3 epsilon homodimer protein (UniProt P07766 23-126) (assay: SPR Biacore T200, CD3e homodimer on chip, vs unaltered GLS3000 antibody).
T1 construct: also called CD3 (CD3 epsilon)
T1 sequence (P07766 23-126): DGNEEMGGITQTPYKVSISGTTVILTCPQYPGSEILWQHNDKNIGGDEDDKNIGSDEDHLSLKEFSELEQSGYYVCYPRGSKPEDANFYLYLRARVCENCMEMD

Binder	ratio of amounts bound (Z=Y/X)
B1	0.19
B2	0.77
B3	0.8
B4	0.61
B5	0.36
B6	0.87
B7	0.47
B8	0.56
B9	0.34
B10	0.29
B11	0.69
B12	1.86
B13	0.5
B14	0.36
B15	0.5
B16	1.1
B17	0.7
B18	0.37
B19	1.08
B20	0.44
B21	0.42
B22	0.41
B23	0.39

Binder	ratio of amounts bound (Z=Y/X)
B24	0.54
B25	0.44
B26	0.46
B27	1.65
B28	0.81
B29	0.4
B30	0.61
B31	0.32
B32	0.26
B33	0.76
B34	1.04
B35	0.29
B36	0.99
B37	0.61
B38	0.62
B39	1.18
B40	0.44
B41	0.46
B42	0.98
B43	0.34
B44	0.31
B45	0.39
B46	0.45
